This is an account of results in patent US12351616B2, “Peptides and combination of peptides for use in immunotherapy against esophageal cancer and other cancers” (Immatics Biotechnologies GmbH, priority 2015, dated 2025).

This assay deals with HLA-A*02:01 (Homo sapiens, UniProt P04439, D140Y/D185E/D98H/E176V/E277Q/G131W/G231S/I119V/I121R/I166T/I218V/L300P/L318F/N151K/N90K/P208A/P217A/Q86G/Q94H/R138H/R169H/T345S). The assay is described as follows: MHC binding assay: UV-ligand exchange with β2m ELISA. The note with it: peptide exchange yield, binding to HLA-A*02:01. The source says:
Candidate peptides for T cell based therapies according to the present invention were further tested for their MHC binding capacity (affinity). The individual peptide-MHC complexes were produced by UV-ligand exchange, where a UV-sensitive peptide is cleaved upon UV-irradiation, and exchanged with the peptide of interest as analyzed. Only peptide candidates that can effectively bind and stabilize the peptide-receptive MHC molecules prevent dissociation of the MHC complexes. To determine the yield of the exchange reaction, an ELISA was performed based on the detection of the light chain (β2m) of stabilized MHC complexes. The assay was performed as generally described in Rodenko et al. (Rodenko et al., 2006).
96 well MAXISorp plates (NUNC) were coated over night with 2 ug/ml streptavidin in PBS at room temperature, washed 4× and blocked for 1 h at 37° C. in 2% BSA containing blocking buffer. Refolded HLA-A*02:01/MLA-001 monomers served as standards, covering the range of 15-500 ng/ml. Peptide-MHC monomers of the UV-exchange reaction were diluted 100 fold in blocking buffer. Samples were incubated for 1 h at 37° C., washed four times, incubated with 2 ug/ml HRP conjugated anti-β2m for 1 h at 37° C., washed again and detected with TMB solution that is stopped with […]. Absorption was measured at 450 nm. Candidate peptides that show a high exchange yield (preferably higher than 50%, most preferred higher than 75%) are generally preferred for a generation and production of antibodies or fragments thereof, and/or T cell receptors or fragments thereof, as they show sufficient avidity to the MHC molecules and prevent dissociation of the MHC complexes.

Regarding “3 (TASAITPSV; listed as Homo sapiens) [compound 3]”, the Peptide exchange entry is reported as “+++ (≥50 = +++)”.

Take “87 (FLDNGPKTI; listed as Homo sapiens) [compound 87]”: the Peptide exchange entry is “+++ (≥50 = +++)”.

In the case of “16 (VLAEGGEGV; listed as Homo sapiens) [compound 16]”, the Peptide exchange entry was “+++ (≥50 = +++)”.

With “68 (PAVLQSSGLYSL; listed as Homo sapiens) [compound 68]”, the Peptide exchange result is recorded as “++ (≥20% = ++)”.

On to “23 (KLSDSATYL; listed as Homo sapiens) [compound 23]”, for which the Peptide exchange entry is on record as “+++ (≥50 = +++)”.

As for “65 (YVVGGFLYQRL; listed as Homo sapiens) [compound 65]”, the Peptide exchange result is recorded as “+++ (≥50 = +++)”.

For the substance “58 (LILESIPVV; listed as Homo sapiens) [compound 58]”, the Peptide exchange result is “++ (≥20% = ++)”.

On to “73 (KITEAIQYV; listed as Homo sapiens) [compound 73]”, for which the Peptide exchange entry is given as “+++ (≥50 = +++)”.

As for “72 (FLPPAQVTV; listed as Homo sapiens) [compound 72]”, the Peptide exchange result is “++ (≥20% = ++)”.

As to “45 (MLTELEKAL; listed as Homo sapiens) [compound 45]”, the Peptide exchange result is recorded as “++ (≥20% = ++)”.

In the case of “40 (GLAFSLYQA; listed as Homo sapiens) [compound 40]”, the Peptide exchange entry was “++ (≥20% = ++)”.

“38 (IAAIRGFLV; listed as Homo sapiens) [compound 38]”: the Peptide exchange entry was “+++ (≥50 = +++)”.

Regarding “13 (SLSPVILGV; listed as Homo sapiens) [compound 13]”, the Peptide exchange result is “++++ (≥75% = ++++)”.

As to “26 (MLAEKLLQA; listed as Homo sapiens) [compound 26]”, the Peptide exchange result was “+ (≥10% = +)”.

On to “18 (FLLDQVQLGL; listed as Homo sapiens) [compound 18]”, for which the Peptide exchange entry is “+++ (≥50 = +++)”.

“32 (YMLDIFHEV; listed as Homo sapiens) [compound 32]”: the Peptide exchange entry is “++ (≥20% = ++)”.

Take “27 (NLREGDQLL; listed as Homo sapiens) [compound 27]”: the Peptide exchange entry is on record as “+++ (≥50 = +++)”.

In the case of “28 (SLDGFTIQV; listed as Homo sapiens) [compound 28]”, the Peptide exchange entry is recorded as “++ (≥20% = ++)”.

For “79 (GQDVGRYQV; listed as Homo sapiens) [compound 79]”, the Peptide exchange result is “++ (≥20% = ++)”.

Turning to “78 (KVANIIAEV; listed as Homo sapiens) [compound 78]”, the Peptide exchange entry is recorded as “++ (≥20% = ++)”.

As to “70 (FVLDTSESV; listed as Homo sapiens) [compound 70]”, the Peptide exchange entry is “+++ (≥50 = +++)”.

For “49 (GLMKDIVGA; listed as Homo sapiens) [compound 49]”, the Peptide exchange entry is on record as “+++ (≥50 = +++)”.

In the case of “61 (TQTTHELTI; listed as Homo sapiens) [compound 61]”, the Peptide exchange entry was “+++ (≥50 = +++)”.

Consider “35 (LLRFSQDNA; listed as Homo sapiens) [compound 35]”, for which the Peptide exchange entry is given as “+++ (≥50 = +++)”.

Regarding “67 (SMNGGVFAV; listed as Homo sapiens) [compound 67]”, the Peptide exchange entry is “++ (≥20% = ++)”.

With “33 (GLDVTSLRPFDL; listed as Homo sapiens) [compound 33]”, the Peptide exchange result was “+++ (≥50 = +++)”.

Consider “11 (ALWLPTDSATV; listed as Homo sapiens) [compound 11]”, for which the Peptide exchange entry is listed as “+++ (≥50 = +++)”.

Consider “60 (VVMEELLKV; listed as Homo sapiens) [compound 60]”, for which the Peptide exchange result is recorded as “++ (≥20% = ++)”.

As to “43 (KVVGKDYLL; listed as Homo sapiens) [compound 43]”, the Peptide exchange entry is listed as “+ (≥10% = +)”.

In the case of “85 (NIIELVHQV; listed as Homo sapiens) [compound 85]”, the Peptide exchange result is recorded as “++++ (≥75% = ++++)”.

As for “21 (IVREFLTAL; listed as Homo sapiens) [compound 21]”, the Peptide exchange result is “+++ (≥50 = +++)”.

Regarding “90 (SIYEYYHAL; listed as Homo sapiens) [compound 90]”, the Peptide exchange result is listed as “+++ (≥50 = +++)”.

For the substance “62 (ALYEYQPLQI; listed as Homo sapiens) [compound 62]”, the Peptide exchange entry was “++ (≥20% = ++)”.

“34 (SLVSEQLEPA; listed as Homo sapiens) [compound 34]”: the Peptide exchange entry was “+++ (≥50 = +++)”.

As for “53 (VVVTGLTLV; listed as Homo sapiens) [compound 53]”, the Peptide exchange result is reported as “++ (≥20% = ++)”.

“83 (ALADGVVSQA; listed as Homo sapiens) [compound 83]”: the Peptide exchange result was “+++ (≥50 = +++)”.

On to “8 (ALLDGGSEAYWRV; listed as Homo sapiens) [compound 8]”, for which the Peptide exchange entry is listed as “+++ (≥50 = +++)”.

Consider “42 (TQTAVITRI; listed as Homo sapiens) [compound 42]”, for which the Peptide exchange result is on record as “+ (≥10% = +)”.

As to “7 (SIFEGLLSGV; listed as Homo sapiens) [compound 7]”, the Peptide exchange entry was “++ (≥20% = ++)”.

“57 (GLAPNTPGKA; listed as Homo sapiens) [compound 57]”: the Peptide exchange entry is given as “+++ (≥50 = +++)”.

Regarding “93 (VLINTSVTL; listed as Homo sapiens) [compound 93]”, the Peptide exchange entry is given as “+++ (≥50 = +++)”.

Regarding “66 (LLDEKVQSV; listed as Homo sapiens) [compound 66]”, the Peptide exchange entry is “+++ (≥50 = +++)”.

On to “36 (FLLRFSQDNA; listed as Homo sapiens) [compound 36]”, for which the Peptide exchange entry is on record as “++ (≥20% = ++)”.

For the substance “89 (SLADSLYNL; listed as Homo sapiens) [compound 89]”, the Peptide exchange result was “++ (≥20% = ++)”.

Regarding “76 (KVADYIPQL; listed as Homo sapiens) [compound 76]”, the Peptide exchange entry is “+++ (≥50 = +++)”.

On to “25 (LLPPPPPPA; listed as Homo sapiens) [compound 25]”, for which the Peptide exchange result is listed as “+++ (≥50 = +++)”.

Take “63 (LAYTLGVKQL; listed as Homo sapiens) [compound 63]”: the Peptide exchange result is given as “+++ (≥50 = +++)”.

Turning to “54 (YQDLLNVKM; listed as Homo sapiens) [compound 54]”, the Peptide exchange entry is given as “+++ (≥50 = +++)”.

“56 (ALVEVTEHV; listed as Homo sapiens) [compound 56]”: the Peptide exchange entry is given as “++ (≥20% = ++)”.

Take “80 (ALQEALENA; listed as Homo sapiens) [compound 80]”: the Peptide exchange entry is listed as “++ (≥20% = ++)”.

As to “91 (KLIDDVHRL; listed as Homo sapiens) [compound 91]”, the Peptide exchange entry is listed as “++++ (≥75% = ++++)”.

In the case of “55 (GAIDLLHNV; listed as Homo sapiens) [compound 55]”, the Peptide exchange result is on record as “++ (≥20% = ++)”.

In the case of “81 (AVLPHVDQV; listed as Homo sapiens) [compound 81]”, the Peptide exchange result is listed as “+++ (≥50 = +++)”.

For the substance “71 (ASDPILYRPVAV; listed as Homo sapiens) [compound 71]”, the Peptide exchange result is on record as “+++ (≥50 = +++)”.

Turning to “51 (KLFGHLTSA; listed as Homo sapiens) [compound 51]”, the Peptide exchange result was “++ (≥20% = ++)”.

Regarding “31 (VLPKLYVKL; listed as Homo sapiens) [compound 31]”, the Peptide exchange entry was “++ (≥20% = ++)”.

Turning to “17 (MISRTPEV; listed as Homo sapiens) [compound 17]”, the Peptide exchange entry is recorded as “++ (≥20% = ++)”.

Turning to “44 (ATGNDRKEAAENSL; listed as Homo sapiens) [compound 44]”, the Peptide exchange result is “+++ (≥50 = +++)”.

Take “92 (SILRHVAEV; listed as Homo sapiens) [compound 92]”: the Peptide exchange result is “++ (≥20% = ++)”.

As to “82 (HLLGHLEQA; listed as Homo sapiens) [compound 82]”, the Peptide exchange result is given as “+++ (≥50 = +++)”.

On to “84 (SLAESLDQA; listed as Homo sapiens) [compound 84]”, for which the Peptide exchange result is given as “+++ (≥50 = +++)”.

For “10 (SLDENSDQQV; listed as Homo sapiens) [compound 10]”, the Peptide exchange result is reported as “+++ (≥50 = +++)”.

“39 (LVRDTQSGSL; listed as Homo sapiens) [compound 39]”: the Peptide exchange entry is recorded as “++ (≥20% = ++)”.

Turning to “9 (HLIAEIHTA; listed as Homo sapiens) [compound 9]”, the Peptide exchange result is “+++ (≥50 = +++)”.

“24 (LLFAGTMTV; listed as Homo sapiens) [compound 24]”: the Peptide exchange result is recorded as “++ (≥20% = ++)”.

As to “41 (GLESEELEPEEL; listed as Homo sapiens) [compound 41]”, the Peptide exchange entry was “++ (≥20% = ++)”.

As for “14 (RLPNAGTQV; listed as Homo sapiens) [compound 14]”, the Peptide exchange result is given as “++++ (≥75% = ++++)”.
